Results on 7 molecules are retold here after publication PMC3138243 (The Journal of Biological Chemistry, 2011).

One data set deals with PER2 (mouse, UniProt O54943 1-1257). The experiment in a line: co-IP.
For a further data set, the target named is CLOCK:BMAL1 heterodimer (mouse, UniProt O08785;Q9WTL8). The experiment in a line: native gel or EMSA. In general terms: Mobility shift assays separate free from complexed probe on a gel.
Data set [1] addresses T1, CLOCK (co-expressed with BMAL1);BMAL1 (Mus musculus;Mus musculus, UniProt O08785;Q9WTL8 1-855;1-632, |). The experiment in a line: EMSA.
The target of data set [2] is T2, CLOCK (co-expressed with BMAL1);BMAL1;CRY1 (Mus musculus;Mus musculus;Mus musculus, UniProt O08785;Q9WTL8;P97784 1-855;1-632;1-606, ||). The experiment in a line: EMSA supershift.
In data set [3] the target is T2, CLOCK (co-expressed with …). The experiment in a line: EMSA supershift. This is another data set of the same source.
The target in the next data set is BMAL1 (Mus musculus, UniProt Q9WTL8 1-632). The experiment in a line: EMSA.
For another data set, the target named is T3, CRY1 (Mus musculus, UniProt P97784 1-606).
T3 sequence: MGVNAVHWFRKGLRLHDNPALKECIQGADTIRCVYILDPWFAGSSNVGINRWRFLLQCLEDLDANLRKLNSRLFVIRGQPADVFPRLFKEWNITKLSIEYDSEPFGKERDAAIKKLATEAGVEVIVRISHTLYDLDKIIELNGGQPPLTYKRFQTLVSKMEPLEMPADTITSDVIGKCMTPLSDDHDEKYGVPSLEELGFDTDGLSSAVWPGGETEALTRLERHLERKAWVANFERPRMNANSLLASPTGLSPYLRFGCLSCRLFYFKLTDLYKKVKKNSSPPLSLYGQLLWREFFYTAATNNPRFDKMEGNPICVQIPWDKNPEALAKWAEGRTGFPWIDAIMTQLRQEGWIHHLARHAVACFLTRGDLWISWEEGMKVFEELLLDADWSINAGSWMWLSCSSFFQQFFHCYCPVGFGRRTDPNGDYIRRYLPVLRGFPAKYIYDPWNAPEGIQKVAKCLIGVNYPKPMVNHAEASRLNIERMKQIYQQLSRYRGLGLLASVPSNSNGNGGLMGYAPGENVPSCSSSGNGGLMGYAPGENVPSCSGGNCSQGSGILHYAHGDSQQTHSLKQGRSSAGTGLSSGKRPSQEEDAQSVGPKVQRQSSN
The experiment in a line: EMSA.

The target of data set [4] is CLOCK (co-expressed with BMAL1);BMAL1;hCRY1 (Mus musculus;Mus musculus;Homo sapiens, UniProt O08785;Q9WTL8;Q16526 1-855;1-632;1-586, ||). The experiment in a line: EMSA.
For data set [5], the target named is T1, CLOCK (co-expressed with BMAL1);BMAL1. The experiment in a line: EMSA. The source holds these as a separate data set.
Data set [6] concerns the target CLOCK (co-expressed with BMAL1);BMAL1;CRY2 (Mus musculus;Mus musculus;Mus musculus, UniProt O08785;Q9WTL8;Q9R194 1-855;1-632;1-592, ||). The experiment in a line: EMSA supershift.

Read-outs that look alike come from different tables or passages of the source.

Sequence of CLOCK:BMAL1 heterodimer (Q9WTL8 whole entry, one chain of several): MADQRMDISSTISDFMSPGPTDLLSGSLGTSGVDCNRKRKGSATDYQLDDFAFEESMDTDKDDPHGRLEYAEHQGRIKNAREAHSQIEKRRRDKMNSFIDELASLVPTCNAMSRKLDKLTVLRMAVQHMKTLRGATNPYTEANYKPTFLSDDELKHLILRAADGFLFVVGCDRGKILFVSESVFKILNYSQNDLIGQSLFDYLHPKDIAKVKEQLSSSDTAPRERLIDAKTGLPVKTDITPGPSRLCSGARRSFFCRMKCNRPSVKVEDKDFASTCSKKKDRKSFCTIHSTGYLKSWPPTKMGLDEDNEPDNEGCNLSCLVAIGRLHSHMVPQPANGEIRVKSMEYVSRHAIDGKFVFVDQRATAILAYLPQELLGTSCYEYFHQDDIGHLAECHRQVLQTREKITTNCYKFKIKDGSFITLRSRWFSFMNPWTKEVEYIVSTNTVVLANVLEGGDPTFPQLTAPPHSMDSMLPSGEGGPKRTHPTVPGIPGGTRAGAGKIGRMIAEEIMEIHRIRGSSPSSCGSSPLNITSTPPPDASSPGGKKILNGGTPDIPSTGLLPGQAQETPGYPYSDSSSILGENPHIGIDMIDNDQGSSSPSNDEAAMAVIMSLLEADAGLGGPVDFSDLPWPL
T1 sequence (Q9WTL8 whole entry, one chain of several): as above
T2 sequence (Q9WTL8 whole entry, one chain of several): as above
Sequence of PER2 (O54943 whole entry): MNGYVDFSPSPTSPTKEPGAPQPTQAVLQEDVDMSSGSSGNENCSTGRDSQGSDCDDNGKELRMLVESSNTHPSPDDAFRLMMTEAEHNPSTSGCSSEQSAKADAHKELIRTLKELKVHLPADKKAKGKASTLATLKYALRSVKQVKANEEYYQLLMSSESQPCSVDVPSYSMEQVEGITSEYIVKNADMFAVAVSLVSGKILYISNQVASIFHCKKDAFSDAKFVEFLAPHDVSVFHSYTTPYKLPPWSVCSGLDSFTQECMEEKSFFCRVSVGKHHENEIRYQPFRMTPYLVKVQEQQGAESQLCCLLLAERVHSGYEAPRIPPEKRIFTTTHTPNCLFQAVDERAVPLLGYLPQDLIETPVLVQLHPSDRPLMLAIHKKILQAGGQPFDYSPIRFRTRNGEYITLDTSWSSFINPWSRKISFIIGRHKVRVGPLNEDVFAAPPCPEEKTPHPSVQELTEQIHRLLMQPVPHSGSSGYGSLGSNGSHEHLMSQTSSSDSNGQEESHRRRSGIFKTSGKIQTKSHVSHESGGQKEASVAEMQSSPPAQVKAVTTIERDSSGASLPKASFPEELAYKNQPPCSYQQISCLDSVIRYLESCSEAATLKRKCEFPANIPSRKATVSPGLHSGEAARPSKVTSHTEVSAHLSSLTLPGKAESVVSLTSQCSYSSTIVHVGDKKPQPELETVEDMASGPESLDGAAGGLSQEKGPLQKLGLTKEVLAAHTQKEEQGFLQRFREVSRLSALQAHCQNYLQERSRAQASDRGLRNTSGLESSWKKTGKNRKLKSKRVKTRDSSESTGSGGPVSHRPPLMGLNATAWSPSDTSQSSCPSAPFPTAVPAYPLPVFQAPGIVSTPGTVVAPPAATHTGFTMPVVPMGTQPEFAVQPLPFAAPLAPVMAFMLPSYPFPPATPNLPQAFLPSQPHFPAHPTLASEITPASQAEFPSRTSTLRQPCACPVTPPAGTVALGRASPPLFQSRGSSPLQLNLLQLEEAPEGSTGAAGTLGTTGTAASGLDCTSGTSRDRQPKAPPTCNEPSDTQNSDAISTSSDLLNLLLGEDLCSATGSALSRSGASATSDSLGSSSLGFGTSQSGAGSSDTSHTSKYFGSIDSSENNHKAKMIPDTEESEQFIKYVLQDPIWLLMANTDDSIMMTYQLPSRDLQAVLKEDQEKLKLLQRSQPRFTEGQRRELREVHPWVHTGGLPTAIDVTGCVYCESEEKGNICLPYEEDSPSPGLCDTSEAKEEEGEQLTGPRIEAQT
Sequence of CLOCK (co-expressed with BMAL1);BMAL1;hCRY1 (Q9WTL8 whole entry, one chain of several): as the sequence (Q9WTL8 whole entry, one chain of several) above
Sequence of CLOCK (co-expressed with BMAL1);BMAL1;CRY2 (Q9WTL8 whole entry, one chain of several): as above
Sequence of BMAL1 (Q9WTL8 whole entry): as the sequence (Q9WTL8 whole entry, one chain of several) above

B1: CLOCK (natural protein)
chain: MVFTVSCSKMSSIVDRDDSSIFDGLVEEDDKDKAKRVSRNKSEKKRRDQFNVLIKELGSMLPGNARKMDKSTVLQKSIDFLRKHKETTAQSDASEIRQDWKPTFLSNEEFTQLMLEALDGFFLAIMTDGSIIYVSESVTSLLEHLPSDLVDQSIFNFIPEGEHSEVYKILSTHLLESDSLTPEYLKSKNQLEFCCHMLRGTIDPKEPSTYEYVRFIGNFKSLTSVSTSTHNGFEGTIQRTHRPSYEDRVCFVATVRLATPQFIKEMCTVEEPNEEFTSRHSLEWKFLFLDHRAPPIIGYLPFEVLGTSGYDYYHVDDLENLAKCHEHLMQYGKGKSCYYRFLTKGQQWIWLQTHYYITYHQWNSRPEFIVCTHTVVSYAEVRAERRRELGIEESLPETAADKSQDSGSDNRINTVSLKEALERFDHSPTPSASSRSSRKSSHTAVSDPSSTPTKIPTDTSTPPRQHLPAHEKMTQRRSSFSSQSINSQSVGPSLTQPAMSQAANLPIPQGMSQFQFSAQLGAMQHLKDQLEQRTRMIEANIHRQQEELRKIQEQLQMVHGQGLQMFLQQSNPGLNFGSVQLSSGNSNIQQLTPVNMQGQVVPANQVQSGHISTGQHMIQQQTLQSTSTQQSQQSVMSGHSQQTSLPSQTPSTLTAPLYNTMVISQPAAGSMVQIPSSMPQNSTQSATVTTFTQDRQIRFSQGQQLVTKLVTAPVACGAVMVPSTMLMGQVVTAYPTFATQQQQAQTLSVTQQQQQQQQQPPQQQQQQQQSSQEQQLPSVQQPAQAQLGQPPQQFLQTSRLLHGNPSTQLILSAAFPLQQSTFPPSHHQQHQPQQQQQLPRHRTDSLTDPSKVQPQ
B1: the binding result in the data set with PER2 is “binds”.

B2: human CRY1 (natural protein)
chain: MGVNAVHWFRKGLRLHDNPALKECIQGADTIRCVYILDPWFAGSSNVGINRWRFLLQCLEDLDANLRKLNSRLFVIRGQPADVFPRLFKEWNITKLSIEYDSEPFGKERDAAIKKLATEAGVEVIVRISHTLYDLDKIIELNGGQPPLTYKRFQTLISKMEPLEIPVETITSEVIEKCTTPLSDDHDEKYGVPSLEELGFDTDGLSSAVWPGGETEALTRLERHLERKAWVANFERPRMNANSLLASPTGLSPYLRFGCLSCRLFYFKLTDLYKKVKKNSSPPLSLYGQLLWREFFYTAATNNPRFDKMEGNPICVQIPWDKNPEALAKWAEGRTGFPWIDAIMTQLRQEGWIHHLARHAVACFLTRGDLWISWEEGMKVFEELLLDADWSINAGSWMWLSCSSFFQQFFHCYCPVGFGRRTDPNGDYIRRYLPVLRGFPAKYIYDPWNAPEGIQKVAKCLIGVNYPKPMVNHAEASRLNIERMKQIYQQLSRYRGLGLLASVPSNPNGNGGFMGYSAENIPGCSSSGSCSQGSGILHYAHGDSQQTHLLKQGRSSMGTGLSGGKRPSQEEDTQSIGPKVQRQSTN
For B2, the binding result with CLOCK:BMAL1 heterodimer is “binds”.

B3: P2GS 60-bp duplex (dsDNA)
DNA 1: CATCACCCACTCACCCCTTAACGACACGTGGGCCCTCAATTGCCCTTCTCTCAGGATCTG
DNA 2: CAGATCCTGAGAGAAGGGCAATTGAGGGCCCACGTGTCGTTAAGGGGTGAGTGGGTGATG
As for B3, the binding result in data set [1] and in [2] was “binds” in each case.

B4: CRY1 (natural protein)
chain: MGVNAVHWFRKGLRLHDNPALKECIQGADTIRCVYILDPWFAGSSNVGINRWRFLLQCLEDLDANLRKLNSRLFVIRGQPADVFPRLFKEWNITKLSIEYDSEPFGKERDAAIKKLATEAGVEVIVRISHTLYDLDKIIELNGGQPPLTYKRFQTLVSKMEPLEMPADTITSDVIGKCMTPLSDDHDEKYGVPSLEELGFDTDGLSSAVWPGGETEALTRLERHLERKAWVANFERPRMNANSLLASPTGLSPYLRFGCLSCRLFYFKLTDLYKKVKKNSSPPLSLYGQLLWREFFYTAATNNPRFDKMEGNPICVQIPWDKNPEALAKWAEGRTGFPWIDAIMTQLRQEGWIHHLARHAVACFLTRGDLWISWEEGMKVFEELLLDADWSINAGSWMWLSCSSFFQQFFHCYCPVGFGRRTDPNGDYIRRYLPVLRGFPAKYIYDPWNAPEGIQKVAKCLIGVNYPKPMVNHAEASRLNIERMKQIYQQLSRYRGLGLLASVPSNSNGNGGLMGYAPGENVPSCSSSGNGGLMGYAPGENVPSCSGGNCSQGSGILHYAHGDSQQTHSLKQGRSSAGTGLSSGKRPSQEEDAQSVGPKVQRQSSN
Regarding B4, the binding result in the data set with CLOCK:BMAL1 heterodimer is “binds”.

B5: Myc-CRY1 (natural protein)
chain: MGVNAVHWFRKGLRLHDNPALKECIQGADTIRCVYILDPWFAGSSNVGINRWRFLLQCLEDLDANLRKLNSRLFVIRGQPADVFPRLFKEWNITKLSIEYDSEPFGKERDAAIKKLATEAGVEVIVRISHTLYDLDKIIELNGGQPPLTYKRFQTLVSKMEPLEMPADTITSDVIGKCMTPLSDDHDEKYGVPSLEELGFDTDGLSSAVWPGGETEALTRLERHLERKAWVANFERPRMNANSLLASPTGLSPYLRFGCLSCRLFYFKLTDLYKKVKKNSSPPLSLYGQLLWREFFYTAATNNPRFDKMEGNPICVQIPWDKNPEALAKWAEGRTGFPWIDAIMTQLRQEGWIHHLARHAVACFLTRGDLWISWEEGMKVFEELLLDADWSINAGSWMWLSCSSFFQQFFHCYCPVGFGRRTDPNGDYIRRYLPVLRGFPAKYIYDPWNAPEGIQKVAKCLIGVNYPKPMVNHAEASRLNIERMKQIYQQLSRYRGLGLLASVPSNSNGNGGLMGYAPGENVPSCSSSGNGGLMGYAPGENVPSCSGGNCSQGSGILHYAHGDSQQTHSLKQGRSSAGTGLSSGKRPSQEEDAQSVGPKVQRQSSN
For the molecule B5, the binding result in the data set with CLOCK:BMAL1 heterodimer is listed as “binds”.

B6: CRY2 (natural protein)
chain: MAAAAVVAATVPAQSMGADGASSVHWFRKGLRLHDNPALLAAVRGARCVRCVYILDPWFAASSSVGINRWRFLLQSLEDLDTSLRKLNSRLFVVRGQPADVFPRLFKEWGVTRLTFEYDSEPFGKERDAAIMKMAKEAGVEVVTENSHTLYDLDRIIELNGQKPPLTYKRFQALISRMELPKKPAVAVSSQQMESCRAEIQENHDDTYGVPSLEELGFPTEGLGPAVWQGGETEALARLDKHLERKAWVANYERPRMNANSLLASPTGLSPYLRFGCLSCRLFYYRLWDLYKKVKRNSTPPLSLFGQLLWREFFYTAATNNPRFDRMEGNPICIQIPWDRNPEALAKWAEGKTGFPWIDAIMTQLRQEGWIHHLARHAVACFLTRGDLWVSWESGVRVFDELLLDADFSVNAGSWMWLSCSAFFQQFFHCYCPVGFGRRTDPSGDYIRRYLPKLKGFPSRYIYEPWNAPESVQKAAKCIIGVDYPRPIVNHAETSRLNIERMKQIYQQLSRYRGLCLLASVPSCVEDLSHPVAEPGSSQAGSISNTGPRALSSGPASPKRKLEAAEEPPGEELTKRARVTEMPTQEPASKDS
With B6, the binding result in the data set with CLOCK:BMAL1 heterodimer is “binds”.

B7: M34 (dsDNA)
DNA 1: GGGACACGTGACCC
DNA 2: GGGTCACGTGTCCC
For the molecule B7, the binding result in data set [3] is listed as “binds”; with BMAL1, “binds”; with CRY1 it was “no binding”; in [4], “binds”; in data set [5], “binds”; in data set [6] it was “binds”.
